From patent US11162087B2, “Beta-glucosidase, enzyme composition including same, and method for manufacturing sugar solution using same” (RIKEN, priority 2017, dated 2021)

Experiments:
[1] = Inhibitory action of glucose on the β-glucosidase activity; format: biochemical; conditions: 1 mM pNP-Glc, 30° C., 100 minutes
Description: The β-glucosidase derived from a protist of the genus Pseudotrichonympha of the present invention is preferably less likely to suffer from inhibition by glucose on the 3-glucosidase activity. Specifically, when the β-glucosidase activity in the absence of glucose is taken unity, the β-glucosidase activity under a condition of a glucose concentration of 8 g/L (or in the presence of 8 g/L glucose) is preferably 0.5 or more, more preferably 0.6 or more, more preferably 0.7 or more, more preferably 0.8 or more, more preferably 0.9 or more, more preferably 1.0 or more, more preferably 1.1 or more, more preferably 1.2 or more, more preferably 1.3 or more, and in particular preferably 1.4 or more. Further, in addition to the β-glucosidase activity under the condition of the glucose concentration of 8 g/L, when the β-glucosidase activity in the absence of glucose is taken as unity, the β-glucosidase activity under a condition of a glucose concentration of 20 g/L (or in the presence of 20 g/L glucose) is preferably 0.5 or more, more preferably 0.6 or more, and in particular preferably 0.7 or more. The method used herein for measuring the β-glucosidase activity is the same as the above-described method except that 8 g/L or 20 g/L of glucose is added at the time of measuring; and results obtained thereby are used.
An enzyme solution was added to a mixture solution containing 1 mM p-nitrophenyl-β-glucopyranoside (manufactured by Sigma-Aldrich Japan), 50 mM acetic acid buffer and 0, 4, 8 or 20 g/L glucose such that the total amount of the reaction solution became 100 μL, causing a reaction at 30° C. for 100 minutes. Thereafter, 10 μL of 2M sodium carbonate was added and well mixed to stop the reaction, and an increase of absorbance at 405 nm was measured. The activity to release 1 μmol of p-nitrophenol per minute was defined as 1 U. For a blank, 10 μL of 2M sodium carbonate was added to an amount, equivalent to that of the above mixture solution for the reaction solution before addition of the enzyme solution, of a mixture solution containing 1 mM p-nitrophenyl-β-glucopyranoside, 50 mM sodium acetate buffer and 0, 4, 8 or 20 g/L glucose, and mixed well; and then, the enzyme solution was added such that the total solution amount of the blank became 110 μL, causing a reaction at 30° C. for 30 minutes. Thereafter, an increase of absorbance at 405 nm was measured.
In accordance with Reference Example 8, the inhibitory action of glucose on the β-glucosidase activity was measured in enzyme compositions: containing the β-glucosidase and the genus Trichoderma filamentous fungus-derived cellulase prepared in Example 10; and the cell-free extract of β-glucosidase mutant gene transformed E. coli prepared in Example 5. For a comparative control, only the genus Trichoderma filamentous fungus-derived cellulase was used, and the inhibitory action of glucose on the β-glucosidase activity was measured in the same manner. […] That is, both of the enzyme composition containing the β-glucosidase of the present invention and the genus Trichoderma filamentous fungus-derived cellulase, and the cell-free extract of β-glucosidase mutant gene transformed E. coli were less likely to suffer from inhibition on the β-glucosidase activity by glucose, compared to only the genus Trichoderma filamentous fungus-derived cellulase, and the enzyme composition of Comparative Example 1 containing the genus Aspergillus filamentous fungus-derived β-glucosidase and the genus Trichoderma filamentous fungus-derived cellulase.

[2] = β-glucosidase activity measurement with pNP-Glc; format: biochemical
Method: In the present invention, “β-glucosidase” means an enzyme that catalyzes a reaction for hydrolysis degradation of a sugar β-glucoside bond. In the present invention, a method for measuring a β-glucosidase activity utilizes a reaction using p-nitrophenyl-β-D-glucopyranoside (pNP-Glc) as a substrate. Specifically, an enzyme liquid is added to a substrate solution prepared by dissolving pNP-Glc in 50 mM acetic acid-sodium acetate buffer solution (pH 5.0) and reacted at 30° C. for 10 minutes; and the reaction is stopped by well mixing with 2M sodium carbonate in an amount equivalent to one-tenth of a reaction system volume to measure an increase of the absorbance at 405 nm. When p-nitrophenol is released and the absorbance at 405 nm is increased after the above reaction, it is determined that the β-glucosidase activity is present.
10 μL of an enzyme diluted solution was added to and reacted with 90 μL of 50 mM acetic acid buffer containing 1 mM p-nitrophenyl-β-glucopyranoside (manufactured by Sigma-Aldrich Japan) at 30° C. for 10 minutes. Thereafter, 10 μL of 2M sodium carbonate was added and well mixed to stop the reaction, and an increase of absorbance at 405 nm was measured. The activity to release 1 μmol of p-nitrophenol per minute was defined as 1 U. For a blank, 10 μL of 2M sodium carbonate was added to and well mixed with 90 μL of 50 mM sodium acetate buffer containing 1 mM p-nitrophenyl-β-glucopyranoside, and thereafter, 10 μL of an enzyme diluted solution was added to cause a reaction at 30° C. for 30 minutes. Thereafter, an increase of absorbance at 405 nm was measured. At this time, the enzyme liquid was diluted so as not to exceed an absorbance at 405 nm of 1. In addition, a calibration curve was created based on absorbances measured by preparing p-nitrophenol solutions at concentrations of 0.1 mM, 0.2 mM, 1 mM and 2 mM; using 10 μL of them instead of an enzyme diluted solution; and adding and well mixing 10 μL of 2M sodium carbonate for color development.

B1: Comparative Example 1: β-glucosidase derived from the genus Aspergillus filamentous fungus: Aspergillus β-glucosidase (SEQ ID NO: 10) expressed in Trichoderma reesei; measured as enzyme composition … (protein, listed as Aspergillus aculeatus)
chain: DELAFSPPFYPSPWANGQGEWAEAYQRAVAIVSQMTLDEKVNLTTGTGWELEKCVGQTGGVPRLNIGGMCLQDSPLGIRDSDYNSAFPAGVNVAATWDKNLAYLRGQAMGQEFSDKGIDVQLGPAAGPLGRSPDGGRNWEGFSPDPALTGVLFAETIKGIQDAGVVATAKHYILNEQEHFRQVAEAAGYGFNISDTISSNVDDKTIHEMYLWPFADAVRAGVGAIMCSYNQINNSYGCQNSYTLNKLLKAELGFQGFVMSDWGAHHSGVGSALAGLDMSMPGDITFDSATSFWGTNLTIAVLNGTVPQWRVDDMAVRIMAAYYKVGRDRLYQPPNFSSWTRDEYGFKYFYPQEGPYEKVNHFVNVQRNHSEVIRKLGADSTVLLKNNNALPLTGKERKVAILGEDAGSNSYGANGCSDRGCDNGTLAMAWGSGTAEFPYLVTPEQAIQAEVLKHKGSVYAITDNWALSQVETLAKQASVSLVFVNSDAGEGYISVDGNEGDRNNLTLWKNGDNLIKAAANNCNNTIVVIHSVGPVLVDEWYDHPNVTAILWAGLPGQESGNSLADVLYGRVNPGAKSPFTWGKTREAYGDYLVRELNNGNGAPQDDFSEGVFIDYRGFDKRNETPIYEFGHGLSYTTFNYSGLHIQVLNASSNAQVATETGAAPTFGQVGNASDYVYPEGLTRISKFIYPWLNSTDLKASSGDPYYGVDTAEHVPEGATDGSPQPVLPAGGGSGGNPRLYDELIRVSVTVKNTGRVAGDAVPQLYVSLGGPNEPKVVLRKFDRLTLKPSEETVWTTTLTRRDLSNWDVAAQDWVITSYPKKVHVGSSSRQLPLHAALPKVQ
notes: measured as enzyme composition with Trichoderma cellulase
**Q.** Which results are given for B1?
**A.** BGL activity (relative value) in the presence of 8 g/L glucose when BGL activity in the absence of glucose is taken as unity [1]: 0.46; BGL activity (relative value) in the presence of 20 g/L glucose when BGL activity in the absence of glucose is taken as unity [1]: 0.20

B2: partially purified β-glucosidase: His-tag purified elution fraction of SEQ ID NO: 1 β-glucosidase from E. coli cell-free extract, buffer exchanged (Example 7) (protein, listed as Pseudotrichonympha grassii)
chain: QIEGLINVMTLEEKVGQMAQLAIDLFIDVPTDTVIPEAARKGIIDYKIGSILNTYGGVSHSKEVWTYINAEFYKYTEETDLKIPILYGLDSIHGANFVNNFTSFPQQIGMAATFNPSLLKEGSRISAYETRAASVGWVFSPVMDLGLDPRWPRIWEGFGEDPYLSSQFGIASVHGFQGKDPNLIDEFHVAACAKHYLAYSNPFTGKDRTPAILSDIFIREYHLPSFKAAVDAGVASVMVNSGLINGIPTHMNHYLLTTVLKEELGFQGVIVTDWQDIENIHTRDHLAPTQKDAVKLAINAGIDMSMIPYNYDFIDYLIELVHEGEVSIDRINDAVRRILKMKAKMNLWDLPVTKSEDYPEFGSEAHANASYTAASESITLLKNENSTLPLAKNTKVLVVGPNSNSHRSLNGGWSYSWQGNAGVQYAVQYNTIYQAIQKVNGEENTVFSQGVRYIETGNYYEDEEVNISESVALARDVDYIILALGENTYTEKPGDLSDLEISQNQIDLAKALASTGKPIILVLNQGRPRIISRIEQLVSAILWIYWPGNYGGDALADILFGDVNPSGKLPVTYPRYSASLITYWHKYAEEQVGQPGAYDYSSDYNPLWEFGYGLSYTTFNYSNLSVPSTSGMRDVIPVSVLVKNTGEVAGKEVVLLFTSDLYASLAPDVKRLRKFTKILLQPGEEQLVSFNLTSSDLSFIDAQSRRVTETGDFEIKIGGLKGKVTLT
modifications: His-tag
**Q.** With B2 as the molecule, how does the “β-glucosidase activity per 1 mg of protein” value ([2]; 1 mM pNP-Glc, 50 mM acetic acid buffer, 30° C., 10 minutes, 1 U = 1 μmol p-nitrophenol per minute) read?
**A.** The value was 3.50 U per 1 mg of protein.

B3: β-glucosidase of the present invention (SEQ ID NO: 1): Polypeptide of SEQ ID NO: 1 from Pseudotrichonympha grassii; in Tables 12/13 measured as the Example 10 composition with Trichoderma cellulase (protein, listed as Pseudotrichonympha grassii)
chain: B2 chain
**Q.** With B3 as the molecule, how does the “BGL activity (relative value) in the presence of 8 g/L glucose when BGL activity in the absence of glucose is taken as unity” value [1] read?
**A.** Its value is 1.49.

**Q.** And the “BGL activity (relative value) in the presence of 20 g/L glucose when BGL activity in the absence of glucose is taken as unity” value [1]?
**A.** The value was 0.94.

B4: Mutant 1: His-tagged polypeptide of SEQ ID NO: 6, 88% identity with SEQ ID NO: 1; tested as cell-free extract of transformed E. coli (protein)
chain: QIEGLINVMTLEEKVGQMAQLAIDLFIDVPTDTVIPEAARKGIIDYKIGSILNTYGGVSHSKEVWTYINAEFYKYTEETDLKIPILYGLDSIHGANFVNNFTSFPQQIGMAATFNPSLLKEGSRISAYETRAASVGWVFSPVMDLGLDPRWPRIWEGFGEDPYLSSQFGIASVHGFQGKDPNLIDEFHVAACAKHYLAYSNPFTGKDRTPAILSDIFIREYHLPSFKAAVDAGVASVMVNSGLINGIPTHMNHYLLTTVLKEELGFQGVIVTDWQDIENIHTRDHLAPTQKDAVKLAINAGIDMSMIPYNYDFIDYLIELVHEGEVSIDRINDAVRRILKMKAKMNLWDLPVTKSEDYPEFGSEAHANASYTAASESITLLKNENSTLPLAKNTKVLVVGPNSNSHRSLNGGWSYSWQGNAGVQYAVQYNTIYQAIQKVNGEENTVFSQGVRYIETGNYYEDEEVNISESVALARDVDYIILALGENTYTEKPGDLSDLEISQNQIDLAKALASTGKPIILVLNQGRPRIISRIEQLVSAILWIYWPGNYGGDALADILFGDVNPSGKLPVTYPRYSASLNTRIVSGGSDSFSEGLFIDYKHFDDANITPRYEFGYGLSYTKFNYSRLSVLSTAKSGPATGAVVPGGPSDLFQNVATVTVDIANSGQVTGAEVAQLYITYPSSAPRTPPKQLRGFAKLNLTPGQSGTATFNIRRRDLSYWDTASQKWVVPSGSFGISVGASSRDIRLTSTLSVA
modifications: His tag; amino acid sequence having 88% sequence identity with amino acid sequence of SEQ ID NO 1
notes: tested as cell-free extract of transformed E. coli
**Q.** Which “Increase of absorbance (405 nm)” value ([2]; cell-free extract, volume reduced to one-twelfth by ultrafilter membrane, detection limit 0.075) does the source give for B4 here?
**A.** Its value is 0.307.

**Q.** What about the “BGL activity (relative value) in the presence of 8 g/L glucose when BGL activity in the absence of glucose is taken as unity” value [1] of the same molecule?
**A.** The value was 0.71.

**Q.** What about the “BGL activity (relative value) in the presence of 20 g/L glucose when BGL activity in the absence of glucose is taken as unity” value [1] of the same molecule?
**A.** The value was 0.70.
